Experimental data reported in US20180017550.

Key:
[1] = molecular target: human MDM2 (ubiquitin-protein ligase E3 MDM2), cell-free expressed with C-terminal HSV epitope tag and polyhistidine tag (UniProt Q00987)
[2] = molecular target: human p53 oncoprotein (cellular tumor antigen p53), cell-free expressed from pETBlue-2 with C-terminal HSV epitope tag and polyhistidine tag (UniProt P04637)
[3] = system: Human casein kinase II (CK), cell-free expressed with C-terminal HSV epitope tag and polyhistidine tag
[4] = molecular target: human protein kinase A catalytic subunit alpha, cell-free expressed with C-terminal HSV epitope tag and polyhistidine tag (UniProt P17612)

human recombinant Src pp60 tyrosine kinase (Invitrogen Corporation)
phosphorylation of photo-transferred protein on microarray, anti-phosphotyrosine (RC20) detection [1]: Both kinases heavily phosphorylate the MDM protein
phosphorylation of photo-transferred protein on microarray, anti-phosphotyrosine (RC20) detection [2]: p53 is not phosphorylated by either kinase
phosphorylation of photo-transferred protein on microarray, anti-phosphotyrosine (RC20) detection [3]: significant phosphorylation of CK and PKA
phosphorylation of photo-transferred protein on microarray, anti-phosphotyrosine (RC20) detection [4]: significant phosphorylation of CK and PKA
